As a reminder, the EC50 is the concentration giving half of the maximal effect.

The target in test [1] is HLA class II antigens (HLA-DR, HLA-DQ and HLA-DP). The experiment in a line: Luminex dose/response, average over 5 class II bead types, antibody at 2 × 10^0 µg/ml.
Test [2] has the same target. In words: Luminex dose/response, average over 5 class II bead types, antibody at 2 × 10^-3 µg/ml.
The target is the same in test [3]. The experiment in a line: Luminex dose/response, average over 5 class II bead types, antibody at 7.8 × 10^-3 µg/ml.
For test [4] the target is unchanged. The experiment in a line: Boltzmann sigmoid fit of the Luminex titration curve; concentration at 50% of the specific signal (MAX-MIN).
The target is the same in test [5]. The experiment in a line: Luminex dose/response, average over 5 class II bead types, antibody at 1.25 × 10^-1 µg/ml.
Test [6] has the same target. The experiment in a line: Boltzmann sigmoid fit of the Luminex titration curve; asymptote as the concentration tends to 0.
Test [7] has the same target. In words: Boltzmann sigmoid fit of the Luminex titration curve; asymptote at infinite concentration.
Test [8] shares this target. In words: Luminex dose/response, average over 5 class II bead types, antibody at 5 × 10^-4 µg/ml.
Test [9] has the same target. In words: Luminex dose/response, average over 5 class II bead types, antibody at 3.13 × 10^-2 µg/ml.
The target is the same in test [10]. In words: Luminex, Labscreen Mixed, each of the 5 class II bead types, antibody at 2 µg/ml.
The target is the same in test [11]. In words: Luminex dose/response, average over 5 class II bead types, antibody at 5 × 10^-1 µg/ml.

B1: monoclonal chimeric immunoglobulin Hu-IgG1 K [F3.3] (antibody, V domains shown)
VH: EVKLEESGGGLVQPGGSMKLSCVASGFTFSNSWMNWVRQSPEKGLEWVAEIRLKSNNYATRYAESVKGRFTISRDDSKSSVYLQMNNLRSEDTAIYYCTPLSYSFDYWGQGTTVTVST
VL: QIVLTQSPAIMSASPGEKVTMTCSASSIVRYMYWFQQKPGSSPRLLIYDTSSLSSGVPVRFSGSGSGTSYSLTISRMEAEDAATYFCQQWSSYPLTFGGGTKLEIKR
With B1, the Average fluorescence intensity (fluorescence intensity) in [1] was determined as 23600; in [2], 1090; in [3] it was 3520; in test [5], 18000; in test [8], 316; in test [9], 9130. Besides, the Average fluorescence intensity (fluorescence intensity) in test [11] stood at 22800. This molecule registered a 50% effective concentration (EC50) in [4] of 0.05 µg/mL. The MIN in [6] was 88 fluorescence. The molecule also gave an MAX in [7] of 24600 fluorescence. In [10], the fluorescence (average fluorescence units) is 22000.

For the origin of these results see patent publication US9637538.
